For assay [1], the target named is T1, mutant kcsa K+ channel (Q58A, T61S, R64D) (Streptomyces lividans, UniProt P0A334, P2A/Q58A/R64D/T61S).
T1 construct: made in house; host or cells: E. coli XL-1 Blue
T1 sequence (P0A334 1-158 P2A/Q58A/T61S/R64D limits assumed): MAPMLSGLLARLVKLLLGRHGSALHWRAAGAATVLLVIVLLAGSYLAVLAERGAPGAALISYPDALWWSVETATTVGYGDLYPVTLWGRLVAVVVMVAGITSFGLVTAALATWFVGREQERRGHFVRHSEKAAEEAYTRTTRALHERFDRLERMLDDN
Put plainly: Mutant kcsa K+ channel cobalt column screen of scorpion venom, eluate analysed by MALDI-TOF mass spectrometry. Particulars: 40 mg Leiurus quinquestriatus hebraeus venom on 1 mL column, imidazole elution. The format is binding. An excerpt:
FIG. 10. Mass Spectra of scorpion toxins before and after channel column purification MALDI-TOF mass spectra of venom before purification (A) and after elution from a cobalt column in the absence (B) and presence (C) of attached mutant kesa K^+ channel. The accuracy of the mass measurements (±0.3 Da) permitted identification of most of the major peaks in the mass spectra searched from databases of known toxins of the Leiurus quinquestratus hebraeus scorpion (D). The kesa-binding component labeled * could not be assigned to a known scorpion toxin. The component labeled X (4193.0 Da) binds nonspecifically to the column and was not identified. MALDI_MS was performed with the MALDI matrix 4-hydroxy-α-cyano-cinnamic acid (16 of Example II).
Three mutations (Q58A, T61S, R64D) were introduced into the kcsa K^+ channel gene to modify its pore region sequence using PCR mutagenesis and confirmed by DNA sequencing. The gene also contained a mutation at the second residue (P2A) to introduce an ncol restriction endonuclease site and it was lacking the last two carboxyl terminal residues (both Arg) to avoid proteolysis during the protein preparation. This gene was cloned into the pQE60 vector for expression with a carboxyl terminal thrombin and hexahistidine fusion. Channel protein was expressed in XL-1 Blue strain of E. coli (Stratagene) by induction with […] at a concentration of 1.0 mM. Three hours following induction bacteria were sonicated in 50 mM Tris buffer (7.5), 100 mM KCl, 10 mM Mg2SO4, 25 mg DNAse 1, 250 mM sucrose, in addition to pepstatin, leupeptin, and PMSF. The channel was extracted in the same solution containing 40 mM decylmaltoside (Anatrace) at room temperature. […]
Guided by knowledge of the toxin receptor on the Shaker K^+ channel, set forth in SEQ ID NO:4, three point mutations were introduced into the kcsa K^+ channel (SEQ ID NO: 1) that should render it sensitive to scorpion toxins (FIG. 9). […] The eluate was analyzed with MALDI-TOF mass spectrometry, focusing on the low mass range appropriate for scorpion toxins (about 4000 Da). […]

Assay [2] addresses T1, mutant kcsa K+ channel (Q58A, T61S, R64D). Put plainly: Competition binding assay: unlabeled toxin against labeled Agitoxin2 on mutant kcsa K+ channel resin. The following applies: for Kd: labeled toxin 0.06 μM, Kdhot 0.62 μM, FIG. 11B, read-out: competing toxin dissociation constant Kdcold; for decrease of affinity caused by the toxin mutation: relative to wild type agitoxin2.
Description: Three mutations (Q58A, T61S, R64D) were introduced into the kcsa K^+ channel gene to modify its pore region sequence using PCR mutagenesis and confirmed by DNA sequencing. The gene also contained a mutation at the second residue (P2A) to introduce an ncol restriction endonuclease site and it was lacking the last two carboxyl terminal residues (both Arg) to avoid proteolysis during the protein preparation. This gene was cloned into the pQE60 vector for expression with a carboxyl terminal thrombin and hexahistidine fusion. Channel protein was expressed in XL-1 Blue strain of E. coli (Stratagene) by induction with […] at a concentration of 1.0 mM. Three hours following induction bacteria were sonicated in 50 mM Tris buffer (7.5), 100 mM KCl, 10 mM Mg2SO4, 25 mg DNAse 1, 250 mM sucrose, in addition to pepstatin, leupeptin, and PMSF. The channel was extracted in the same solution containing 40 mM decylmaltoside (Anatrace) at room temperature. Following centrifugation the supernatant was bound to cobalt resin (Talon) at a protein to resin ratio that will saturate the resin. The resin was washed, and detergent concentration was lowered to 10.0 mM. One mL columns were prepared. The control resin (no channel) was handled in the same manner. The resin preparation was the same for mass spectrometry and binding studies.
(§1) Wild type and mutant agitoxin2 were prepared (10). Tritiated N-ethylmaleimide (NEN Life Sciences) was conjugated to agitoxin2 D20C (14). Binding was performed in a 300 μL volume containing 50 mM Tris (7.5), 100 mM KCl, 10 mM declymaltoside, and 0.3 μL of cobalt resin saturated with the mutant kcsa K^+ channel for 30 minutes at room temperature. Following brief centrifugation the supernatant was removed, resin was applied to a filter, rinsed briefly with ice cold buffer, and then counted in a scintillation counter. All binding measurements were made with a paired control containing a saturating concentration (200 times KD) of unlabeled wild type agitoxin2 to determine nonspecific binding. The competition assay was carried out under the same conditions. Labeled Agitoxin2 at 0.06 μM was always present and unlabeled toxin was added to compete with bound labeled toxin.
as §1, with “17. Wild” for “Wild”, “Kd)” for “KD)”

This note sets out measurements from US6641997B1, “Assays for screening compounds which interact with cation channel proteins, mutant prokaryotic cation channel proteins, and uses thereof” (The Rockefeller University, priority 1998, dated 2003).

Turning to chlorotoxin, in assay [1], the “binding to the channel column (mass peak in the eluate)” value is on record as “did not bind”. On the same count and under the same terms, with charybdotoxin the entry was “dramatic enhancement of specific peaks”. Consider “K27A: Agitoxin2 mutant, Lys 27 substituted by alanine”, for which, in assay [2], the Kd was determined as 81 µM and the “decrease of affinity caused by the toxin mutation” value stood at 130 fold. Consider agitoxin2, for which the “binding to the channel column (mass peak in the eluate)” value in assay [1] was “dramatic enhancement of specific peaks”. Moreover, the Kd in assay [2] came to 0.62 µM.

In the case of “N30A: Agitoxin2 mutant, Asn 30 substituted by alanine”, in assay [2], the Kd is 27 µM and the “decrease of affinity caused by the toxin mutation” value is reported as 45 fold.
